Test results taken from the supplement of paper PMC7877785.
± gives the uncertainty stated by the source.

Test: self-splicing fitness, log relative to wild type (ln ratio); higher = more splicing; Tetrahymena group I intron in knt gene, E. coli kanamycin selection, DiMSum; sequences stand for … in CUCUCU…GGAGGGAAAAGUUAUCAGGCAUGCACCUGGUAGCUAGUCUUUAAACCAAUAGAUUGCAUCGGUUUAAAAGGCAAGACCGUCAAAUUGCGGGAAAGGGGUCAACAGCCGUUCAGUACCAAGUCUCAGGGGAAACUUUGAGAUGGCCUUGCAAAGGGUAUGGUAAUAAGCUGACGGACAUGGUCCUAACCACGCAGCCAAGUCCUAAGUCAACAGAUCUUCUGUUGAUAUGGAUGCAGUUCACAGACUAAAUGUCGGUCGGGGAAGAUGUAUUCUUCUCAUAAGAUAUAGUCGGACCUCUCCUUAAUGGGAGCUAGCGGAUGAAGUGAUGCAACACUGGAGCCGCUGGGAACUAAUUUGUAUGCGAAAGUAUAUUGAUUAGUUUUGGAGUACUCGUGGUCG
Outline: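 A randomised library covering all eight P1ex-region intron nucleotides was built with the intron in the knt kanamycin-resistance gene on pET-22b(+) and held in E. coli BL21(DE3). Cells were grown overnight at 37°C or 30°C on LB agar, with or without 25 μg/mL kanamycin, plus 100 μg/mL carbenicillin, 50 μM IPTG and 0.2% rhamnose, and pooled colonies were amplicon-sequenced on an Illumina HiSeq 2500. DiMSum fitness is the error-weighted combination of wild-type-normalised replicate fold changes, kanamycin versus none.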

## GACUAGCAAUAUUACGGUUU
30 °C
  self-splicing fitness (ln): -1.7 ± 0.092
37 °C
  self-splicing fitness (ln): -1.53 ± 0.11

## GACUAGCAAUAUUACGUAAG
30 °C
  self-splicing fitness (ln): -0.946 ± 0.087
37 °C
  self-splicing fitness (ln): -0.709 ± 0.11

## GACUAGCAAUAUUACGUACU
30 °C
  self-splicing fitness (ln): -1.13 ± 0.094
37 °C
  self-splicing fitness (ln): -0.372 ± 0.14

## GACUAGCAAUAUUACGUUGC
30 °C
  self-splicing fitness (ln): -2.56 ± 0.12
37 °C
  self-splicing fitness (ln): -2.5 ± 0.2

## GACUAGCAAUAUUACGUUUC
30 °C
  self-splicing fitness (ln): -2.3 ± 0.12
37 °C
  self-splicing fitness (ln): -2.84 ± 0.18

## GAGAAGCAAUAUUACGAAUU
30 °C
  self-splicing fitness (ln): -2.27 ± 0.14
37 °C
  self-splicing fitness (ln): -1.13 ± 0.15

## GAGAAGCAAUAUUACGACCC
30 °C
  self-splicing fitness (ln): -1.83 ± 0.38

## GAGAAGCAAUAUUACGACGA
30 °C
  self-splicing fitness (ln): -0.554 ± 0.066
37 °C
  self-splicing fitness (ln): -0.104 ± 0.09

## GAGAAGCAAUAUUACGAGAA
30 °C
  self-splicing fitness (ln): -2.75 ± 0.47
37 °C
  self-splicing fitness (ln): -0.703 ± 0.35

## GAGAAGCAAUAUUACGAGGU
30 °C
  self-splicing fitness (ln): -3.47 ± 0.33
37 °C
  self-splicing fitness (ln): -3.9 ± 0.46

## GAGAAGCAAUAUUACGAGUU
30 °C
  self-splicing fitness (ln): -1.95 ± 0.12
37 °C
  self-splicing fitness (ln): -1.63 ± 0.13

## GAGAAGCAAUAUUACGAUCC
30 °C
  self-splicing fitness (ln): -1.9 ± 0.26
37 °C
  self-splicing fitness (ln): -0.963 ± 0.43

## GAGAAGCAAUAUUACGAUUG
30 °C
  self-splicing fitness (ln): -2.76 ± 0.22
37 °C
  self-splicing fitness (ln): -1.49 ± 0.23

## GAGAAGCAAUAUUACGCACG
30 °C
  self-splicing fitness (ln): -0.497 ± 0.14
37 °C
  self-splicing fitness (ln): -0.392 ± 0.15

## GAGAAGCAAUAUUACGCCAA
30 °C
  self-splicing fitness (ln): -0.505 ± 0.27
37 °C
  self-splicing fitness (ln): -2.17 ± 0.22

## GAGAAGCAAUAUUACGCCCA
30 °C
  self-splicing fitness (ln): -0.503 ± 0.2
37 °C
  self-splicing fitness (ln): -0.351 ± 0.18

## GAGAAGCAAUAUUACGCGAU
30 °C
  self-splicing fitness (ln): -2.81 ± 0.27
37 °C
  self-splicing fitness (ln): -2.48 ± 0.33

## GAGAAGCAAUAUUACGCGGA
30 °C
  self-splicing fitness (ln): -2.51 ± 0.22
37 °C
  self-splicing fitness (ln): -1.39 ± 0.17

## GAGAAGCAAUAUUACGCUCA
30 °C
  self-splicing fitness (ln): -1.29 ± 0.16
37 °C
  self-splicing fitness (ln): -1.13 ± 0.15

## GAGAAGCAAUAUUACGGAGC
30 °C
  self-splicing fitness (ln): -3.83 ± 0.4
37 °C
  self-splicing fitness (ln): -1.84 ± 0.23

## GAGAAGCAAUAUUACGGAUC
30 °C
  self-splicing fitness (ln): -2.34 ± 0.34
37 °C
  self-splicing fitness (ln): -1.97 ± 0.4

## GAGAAGCAAUAUUACGGAUU
30 °C
  self-splicing fitness (ln): -2.77 ± 0.11
37 °C
  self-splicing fitness (ln): -1.63 ± 0.11

## GAGAAGCAAUAUUACGGCCA
30 °C
  self-splicing fitness (ln): -0.417 ± 0.16
37 °C
  self-splicing fitness (ln): -0.286 ± 0.17

## GAGAAGCAAUAUUACGGGCG
30 °C
  self-splicing fitness (ln): -1.52 ± 0.14
37 °C
  self-splicing fitness (ln): -0.609 ± 0.13

## GAGAAGCAAUAUUACGGGGG
37 °C
  self-splicing fitness (ln): -1.8 ± 0.47

## GAGAAGCAAUAUUACGGUAG
30 °C
  self-splicing fitness (ln): -3.75 ± 0.29
37 °C
  self-splicing fitness (ln): -2.68 ± 0.24

## GAGAAGCAAUAUUACGGUGC
30 °C
  self-splicing fitness (ln): -2.81 ± 0.19
37 °C
  self-splicing fitness (ln): 0.59 ± 0.21

## GAGAAGCAAUAUUACGGUUC
30 °C
  self-splicing fitness (ln): -2.91 ± 0.13
37 °C
  self-splicing fitness (ln): -1.5 ± 0.13

## GAGAAGCAAUAUUACGGUUU
30 °C
  self-splicing fitness (ln): -1.07 ± 0.099
37 °C
  self-splicing fitness (ln): -1.21 ± 0.14

## GAGAAGCAAUAUUACGUACU
30 °C
  self-splicing fitness (ln): 0.0719 ± 0.08
37 °C
  self-splicing fitness (ln): 0.0321 ± 0.11

## GAGAAGCAAUAUUACGUCCG
30 °C
  self-splicing fitness (ln): -1.48 ± 0.091
37 °C
  self-splicing fitness (ln): -0.864 ± 0.1

## GAGAAGCAAUAUUACGUCUG
30 °C
  self-splicing fitness (ln): -0.739 ± 0.13
37 °C
  self-splicing fitness (ln): 0.277 ± 0.15

## GAGAAGCAAUAUUACGUGGG
30 °C
  self-splicing fitness (ln): -2.74 ± 0.14
37 °C
  self-splicing fitness (ln): -2.29 ± 0.19

## GAGAAGCAAUAUUACGUUCU
30 °C
  self-splicing fitness (ln): -4 ± 0.36
37 °C
  self-splicing fitness (ln): -2.01 ± 0.23

## GAGAAGCAAUAUUACGUUUG
30 °C
  self-splicing fitness (ln): -2.98 ± 0.11
37 °C
  self-splicing fitness (ln): -1.85 ± 0.14

## GAGCAGCAAUAUUACGAACU
30 °C
  self-splicing fitness (ln): -1.17 ± 0.12
37 °C
  self-splicing fitness (ln): -0.227 ± 0.17

## GAGCAGCAAUAUUACGACCU
30 °C
  self-splicing fitness (ln): -1.22 ± 0.17
37 °C
  self-splicing fitness (ln): 0.00279 ± 0.23

## GAGCAGCAAUAUUACGAGCU
30 °C
  self-splicing fitness (ln): -2.58 ± 0.12
37 °C
  self-splicing fitness (ln): -1.88 ± 0.18

## GAGCAGCAAUAUUACGAUAU
30 °C
  self-splicing fitness (ln): -2.17 ± 0.13
37 °C
  self-splicing fitness (ln): -1.17 ± 0.15

## GAGCAGCAAUAUUACGCAGC
30 °C
  self-splicing fitness (ln): -3.7 ± 0.21
37 °C
  self-splicing fitness (ln): -2.61 ± 0.29

## GAGCAGCAAUAUUACGCAUG
30 °C
  self-splicing fitness (ln): -3.03 ± 0.34
37 °C
  self-splicing fitness (ln): -1.67 ± 0.31

## GAGCAGCAAUAUUACGCCGU
30 °C
  self-splicing fitness (ln): -1.39 ± 0.12
37 °C
  self-splicing fitness (ln): -0.525 ± 0.19

## GAGCAGCAAUAUUACGCGGG
30 °C
  self-splicing fitness (ln): -2.52 ± 0.21
37 °C
  self-splicing fitness (ln): -1.96 ± 0.23

## GAGCAGCAAUAUUACGGAUC
30 °C
  self-splicing fitness (ln): -0.51 ± 0.12
37 °C
  self-splicing fitness (ln): -0.724 ± 0.12

## GAGCAGCAAUAUUACGGGAA
30 °C
  self-splicing fitness (ln): -3.18 ± 0.26
37 °C
  self-splicing fitness (ln): -2.05 ± 0.22

## GAGCAGCAAUAUUACGGUAC
30 °C
  self-splicing fitness (ln): -2.73 ± 0.14
37 °C
  self-splicing fitness (ln): -0.416 ± 0.11

## GAGCAGCAAUAUUACGGUCC
30 °C
  self-splicing fitness (ln): -2.93 ± 0.18
37 °C
  self-splicing fitness (ln): -1.63 ± 0.17

## GAGCAGCAAUAUUACGUAAC
30 °C
  self-splicing fitness (ln): -1.36 ± 0.11
37 °C
  self-splicing fitness (ln): -1.13 ± 0.18
